Test results published in article PMC2811071.

Biological target: T1, raver1 RRM1 (human (Homo sapiens), UniProt Q8IY67 59-130)
T1 sequence: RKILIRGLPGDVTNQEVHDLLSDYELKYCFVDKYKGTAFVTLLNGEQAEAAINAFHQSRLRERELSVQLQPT
Assay: ITC

UCAUGCAGUCUG (ssRNA) [vinculin mRNA 12-mer]
binding result: binds
